T1: FcγRIIa(H) (human, UniProt P12318 34-217)
T1 construct: extracellular domain; also called FcγRIIa H type; 2aH
T1 sequence: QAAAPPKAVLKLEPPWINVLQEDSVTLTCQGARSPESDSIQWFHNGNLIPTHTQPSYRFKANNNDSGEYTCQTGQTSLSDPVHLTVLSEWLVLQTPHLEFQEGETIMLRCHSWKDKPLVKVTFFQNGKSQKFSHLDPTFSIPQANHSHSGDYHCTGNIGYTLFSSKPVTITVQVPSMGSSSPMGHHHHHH

T2: FcγRIIa(R) (human, UniProt P12318 34-217)
T2 construct: extracellular domain; also called FcγRIIa R type; 2aR
T2 sequence: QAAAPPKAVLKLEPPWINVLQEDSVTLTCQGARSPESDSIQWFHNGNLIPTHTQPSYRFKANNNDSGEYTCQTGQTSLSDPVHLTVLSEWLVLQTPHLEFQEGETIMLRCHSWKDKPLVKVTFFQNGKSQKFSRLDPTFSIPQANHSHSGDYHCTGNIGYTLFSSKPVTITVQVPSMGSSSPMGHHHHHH

T3: FcγRIIb (human, UniProt P31994 43-217)
T3 construct: extracellular domain; also called 2b
T3 sequence: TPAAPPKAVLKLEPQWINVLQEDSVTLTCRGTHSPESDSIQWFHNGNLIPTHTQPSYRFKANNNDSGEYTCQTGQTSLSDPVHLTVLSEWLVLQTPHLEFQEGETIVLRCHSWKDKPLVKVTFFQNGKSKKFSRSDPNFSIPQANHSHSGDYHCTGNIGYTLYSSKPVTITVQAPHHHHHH


Assays:
Assay in all cases: SPR (Biacore), binding relative to GpH7-A5/GpH7-B3/GpL16-k0 x100;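 note: surface plasmon resonance at 25 °C, antibody captured on a sensor chip and soluble FcγR flowed over it in HBS-EP+ running buffer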
FcγRIa = target: T4, FcγRIa (human, UniProt P12314 16-292)
T4 construct: extracellular domain; also called 1a
T4 sequence (P12314 other isoform, or with tags, fused parts or gaps): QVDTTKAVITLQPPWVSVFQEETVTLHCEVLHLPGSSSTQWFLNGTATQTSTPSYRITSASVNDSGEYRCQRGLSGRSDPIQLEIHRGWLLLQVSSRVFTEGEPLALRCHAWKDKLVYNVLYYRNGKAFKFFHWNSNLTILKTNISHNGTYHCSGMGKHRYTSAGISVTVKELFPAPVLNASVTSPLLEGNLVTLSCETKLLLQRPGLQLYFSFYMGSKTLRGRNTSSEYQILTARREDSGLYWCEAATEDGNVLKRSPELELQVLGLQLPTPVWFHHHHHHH
Experimental: (§1) The antibody of interest was analyzed for its interaction with FcγR using a BiaCore™ T100, BiaCore™ A100, or BiaCore™ 4000 surface plasmon resonance system (GE Healthcare Japan Corp.). The running buffer used was HBS-EP+ (GE Healthcare Japan Corp.). The assay temperature was set to 25° C. The sensor chips used were: a chip prepared by immobilizing antigenic peptides onto Series S Sensor Chip CM5 (GE Healthcare Japan Corp.) by the amine coupling method; a chip prepared by immobilizing antigenic peptides biotinylated in advance onto Series S Sensor Chip SA (certified) (GE Healthcare Japan Corp.) through their interaction; a chip prepared by immobilizing protein L (ACTIGEN, BioVision, Inc.) onto Series S Sensor Chip CM5 (GE Healthcare Japan Corp.); and a chip prepared by immobilizing protein A/G (Thermo Fisher Scientific K.K.) onto Series S Sensor Chip CM5 (GE Healthcare Japan Corp.). The antibody of interest was captured onto any of these chips and allowed to interact with FcγR diluted with a running buffer. The antibody captured on the chip was washed off through the reaction of 10 mM glycine-HCl (pH 1.5) to regenerate the chip, which was repetitively used.

FcγRIIa(H) = target: T1, FcγRIIa(H)
Experimental: as §1

FcγRIIa(R) = target: T2, FcγRIIa(R)
Experimental: as §1

FcγRIIb = target: T3, FcγRIIb
Experimental: as §1

Binder	He/Con 1a (FcγRIa)	He/Con 2aH (FcγRIIa(H))	He/Con 2aR (FcγRIIa(R))	He/Con 2b (FcγRIIb)
GpH7-A5/GpH7-B3 variant H268_18N/GpL16-k0 (antibody, human IgG1, kappa, heterodimerized IgG1, one H chain mutated; also called He Ab) heavy 1: not shown heavy 2: not shown light: DIVMTQSPLSLPVTPGEPASISCQASESLVHSNRNTYLHWYLQKPGQSPQLLIYKVSNRFSGVPDRFSGSGSGTDFTLKISRVEAEDVGVYYCSQNTHVPPTFGQGTKVEIERTVAAPSVFIFPPSDEQLKSGTASVVCLLNNFYPREAKVQWKVDNALQSGNSQESVTEQDSKDSTYSLSSTLTLSKADYEKHKVYACEVTHQGLSSPVTKSFNRGEC	104%	113%	138%	164%
GpH7-A5/GpH7-B3 variant L234_05P/GpL16-k0 (antibody, human IgG1, kappa, heterodimerized IgG1, one H chain mutated; also called He Ab) heavy 1: not shown heavy 2: not shown light: DIVMTQSPLSLPVTPGEPASISCQASESLVHSNRNTYLHWYLQKPGQSPQLLIYKVSNRFSGVPDRFSGSGSGTDFTLKISRVEAEDVGVYYCSQNTHVPPTFGQGTKVEIERTVAAPSVFIFPPSDEQLKSGTASVVCLLNNFYPREAKVQWKVDNALQSGNSQESVTEQDSKDSTYSLSSTLTLSKADYEKHKVYACEVTHQGLSSPVTKSFNRGEC	103%	104%	104%	83.2%
GpH7-A5/GpH7-B3 variant L234_02A/GpL16-k0 (antibody, human IgG1, kappa, heterodimerized IgG1, one H chain mutated; also called He Ab) heavy 1: not shown heavy 2: not shown light: DIVMTQSPLSLPVTPGEPASISCQASESLVHSNRNTYLHWYLQKPGQSPQLLIYKVSNRFSGVPDRFSGSGSGTDFTLKISRVEAEDVGVYYCSQNTHVPPTFGQGTKVEIERTVAAPSVFIFPPSDEQLKSGTASVVCLLNNFYPREAKVQWKVDNALQSGNSQESVTEQDSKDSTYSLSSTLTLSKADYEKHKVYACEVTHQGLSSPVTKSFNRGEC	101%	90.1%	92.5%	74.1%
GpH7-A5/GpH7-B3 variant L234_04F/GpL16-k0 (antibody, human IgG1, kappa, heterodimerized IgG1, one H chain mutated; also called He Ab) heavy 1: not shown heavy 2: not shown light: DIVMTQSPLSLPVTPGEPASISCQASESLVHSNRNTYLHWYLQKPGQSPQLLIYKVSNRFSGVPDRFSGSGSGTDFTLKISRVEAEDVGVYYCSQNTHVPPTFGQGTKVEIERTVAAPSVFIFPPSDEQLKSGTASVVCLLNNFYPREAKVQWKVDNALQSGNSQESVTEQDSKDSTYSLSSTLTLSKADYEKHKVYACEVTHQGLSSPVTKSFNRGEC	104%	133%	121%	114%
GpH7-A5/GpH7-B3 variant H268_19Q/GpL16-k0 (antibody, human IgG1, kappa, heterodimerized IgG1, one H chain mutated; also called He Ab) heavy 1: not shown heavy 2: not shown light: DIVMTQSPLSLPVTPGEPASISCQASESLVHSNRNTYLHWYLQKPGQSPQLLIYKVSNRFSGVPDRFSGSGSGTDFTLKISRVEAEDVGVYYCSQNTHVPPTFGQGTKVEIERTVAAPSVFIFPPSDEQLKSGTASVVCLLNNFYPREAKVQWKVDNALQSGNSQESVTEQDSKDSTYSLSSTLTLSKADYEKHKVYACEVTHQGLSSPVTKSFNRGEC	104%	104%	128%	140%
GpH7-A5/GpH7-B3 variant L234_06M/GpL16-k0 (antibody, human IgG1, kappa, heterodimerized IgG1, one H chain mutated; also called He Ab) heavy 1: not shown heavy 2: not shown light: DIVMTQSPLSLPVTPGEPASISCQASESLVHSNRNTYLHWYLQKPGQSPQLLIYKVSNRFSGVPDRFSGSGSGTDFTLKISRVEAEDVGVYYCSQNTHVPPTFGQGTKVEIERTVAAPSVFIFPPSDEQLKSGTASVVCLLNNFYPREAKVQWKVDNALQSGNSQESVTEQDSKDSTYSLSSTLTLSKADYEKHKVYACEVTHQGLSSPVTKSFNRGEC	107%	96.4%	109%	89.6%
GpH7-A5/GpH7-B3 variant H268_20W/GpL16-k0 (antibody, human IgG1, kappa, heterodimerized IgG1, one H chain mutated; also called He Ab) heavy 1: not shown heavy 2: not shown light: DIVMTQSPLSLPVTPGEPASISCQASESLVHSNRNTYLHWYLQKPGQSPQLLIYKVSNRFSGVPDRFSGSGSGTDFTLKISRVEAEDVGVYYCSQNTHVPPTFGQGTKVEIERTVAAPSVFIFPPSDEQLKSGTASVVCLLNNFYPREAKVQWKVDNALQSGNSQESVTEQDSKDSTYSLSSTLTLSKADYEKHKVYACEVTHQGLSSPVTKSFNRGEC	103%	96.9%	122%	117%
GpH7-A5/GpH7-B3 variant L234_01G/GpL16-k0 (antibody, human IgG1, kappa, heterodimerized IgG1, one H chain mutated; also called He Ab) heavy 1: not shown heavy 2: not shown light: DIVMTQSPLSLPVTPGEPASISCQASESLVHSNRNTYLHWYLQKPGQSPQLLIYKVSNRFSGVPDRFSGSGSGTDFTLKISRVEAEDVGVYYCSQNTHVPPTFGQGTKVEIERTVAAPSVFIFPPSDEQLKSGTASVVCLLNNFYPREAKVQWKVDNALQSGNSQESVTEQDSKDSTYSLSSTLTLSKADYEKHKVYACEVTHQGLSSPVTKSFNRGEC	99.2%	84.1%	72.4%	57.8%
GpH7-A5/GpH7-B3 variant L234_03V/GpL16-k0 (antibody, human IgG1, kappa, heterodimerized IgG1, one H chain mutated; also called He Ab) heavy 1: not shown heavy 2: not shown light: DIVMTQSPLSLPVTPGEPASISCQASESLVHSNRNTYLHWYLQKPGQSPQLLIYKVSNRFSGVPDRFSGSGSGTDFTLKISRVEAEDVGVYYCSQNTHVPPTFGQGTKVEIERTVAAPSVFIFPPSDEQLKSGTASVVCLLNNFYPREAKVQWKVDNALQSGNSQESVTEQDSKDSTYSLSSTLTLSKADYEKHKVYACEVTHQGLSSPVTKSFNRGEC	108%	94.4%	99%	83.4%

Further lines, results first:

He/Con 1a (FcγRIa)	He/Con 2aH (FcγRIIa(H))	He/Con 2aR (FcγRIIa(R))	He/Con 2b (FcγRIIb)	Binder
106%	101%	110%	92.3%	GpH7-A5/GpH7-B3 variant L234_07I/GpL16-k0 (antibody, human IgG1, kappa, heterodimerized IgG1, one H chain mutated; also called He Ab) heavy 1: not shown heavy 2: not shown light: DIVMTQSPLSLPVTPGEPASISCQASESLVHSNRNTYLHWYLQKPGQSPQLLIYKVSNRFSGVPDRFSGSGSGTDFTLKISRVEAEDVGVYYCSQNTHVPPTFGQGTKVEIERTVAAPSVFIFPPSDEQLKSGTASVVCLLNNFYPREAKVQWKVDNALQSGNSQESVTEQDSKDSTYSLSSTLTLSKADYEKHKVYACEVTHQGLSSPVTKSFNRGEC
101%	100%	142%	172%	GpH7-A5/GpH7-B3 variant L234_09D/GpL16-k0 (antibody, human IgG1, kappa, heterodimerized IgG1, one H chain mutated; also called He Ab) heavy 1: not shown heavy 2: not shown light: DIVMTQSPLSLPVTPGEPASISCQASESLVHSNRNTYLHWYLQKPGQSPQLLIYKVSNRFSGVPDRFSGSGSGTDFTLKISRVEAEDVGVYYCSQNTHVPPTFGQGTKVEIERTVAAPSVFIFPPSDEQLKSGTASVVCLLNNFYPREAKVQWKVDNALQSGNSQESVTEQDSKDSTYSLSSTLTLSKADYEKHKVYACEVTHQGLSSPVTKSFNRGEC
102%	86.8%	90%	71.4%	GpH7-A5/GpH7-B3 variant L234_14T/GpL16-k0 (antibody, human IgG1, kappa, heterodimerized IgG1, one H chain mutated; also called He Ab) heavy 1: not shown heavy 2: not shown light: DIVMTQSPLSLPVTPGEPASISCQASESLVHSNRNTYLHWYLQKPGQSPQLLIYKVSNRFSGVPDRFSGSGSGTDFTLKISRVEAEDVGVYYCSQNTHVPPTFGQGTKVEIERTVAAPSVFIFPPSDEQLKSGTASVVCLLNNFYPREAKVQWKVDNALQSGNSQESVTEQDSKDSTYSLSSTLTLSKADYEKHKVYACEVTHQGLSSPVTKSFNRGEC
103%	134%	113%	110%	GpH7-A5/GpH7-B3 variant L234_15Y/GpL16-k0 (antibody, human IgG1, kappa, heterodimerized IgG1, one H chain mutated; also called He Ab) heavy 1: not shown heavy 2: not shown light: DIVMTQSPLSLPVTPGEPASISCQASESLVHSNRNTYLHWYLQKPGQSPQLLIYKVSNRFSGVPDRFSGSGSGTDFTLKISRVEAEDVGVYYCSQNTHVPPTFGQGTKVEIERTVAAPSVFIFPPSDEQLKSGTASVVCLLNNFYPREAKVQWKVDNALQSGNSQESVTEQDSKDSTYSLSSTLTLSKADYEKHKVYACEVTHQGLSSPVTKSFNRGEC
100%	89.4%	82.6%	67.7%	GpH7-A5/GpH7-B3 variant L234_13S/GpL16-k0 (antibody, human IgG1, kappa, heterodimerized IgG1, one H chain mutated; also called He Ab) heavy 1: not shown heavy 2: not shown light: DIVMTQSPLSLPVTPGEPASISCQASESLVHSNRNTYLHWYLQKPGQSPQLLIYKVSNRFSGVPDRFSGSGSGTDFTLKISRVEAEDVGVYYCSQNTHVPPTFGQGTKVEIERTVAAPSVFIFPPSDEQLKSGTASVVCLLNNFYPREAKVQWKVDNALQSGNSQESVTEQDSKDSTYSLSSTLTLSKADYEKHKVYACEVTHQGLSSPVTKSFNRGEC
104%	98.2%	130%	134%	GpH7-A5/GpH7-B3 variant L234_10E/GpL16-k0 (antibody, human IgG1, kappa, heterodimerized IgG1, one H chain mutated; also called He Ab) heavy 1: not shown heavy 2: not shown light: DIVMTQSPLSLPVTPGEPASISCQASESLVHSNRNTYLHWYLQKPGQSPQLLIYKVSNRFSGVPDRFSGSGSGTDFTLKISRVEAEDVGVYYCSQNTHVPPTFGQGTKVEIERTVAAPSVFIFPPSDEQLKSGTASVVCLLNNFYPREAKVQWKVDNALQSGNSQESVTEQDSKDSTYSLSSTLTLSKADYEKHKVYACEVTHQGLSSPVTKSFNRGEC

Source: US20260167699A1 (Chugai, published 2026)
